{"source": "patent US20150010538A1", "about": "(AbbVie / Abbott, published 2015)", "binders": {"B1": {"name": "VSR-SN Fab (Fab, V domains shown)", "VH": "QVQLVQSGAEVKKPGSSVKVSCKASGYTFTSYRMHWVRQAPGQGLEWIGYIVPSRGYTEYNQKFKDKATITADESTNTAYMELSSLRSEDTAVYYCARGGGVFDYWGQGTLVTVSS", "VL": "DIQMTQSPSTLSASVGDRVTITCSASSSISYMHWYQQKPGKAPKLLIYTTSNLASGVPARFSGSGSGTEFTLTISSLQPDDFATYYCHQRSTYPLTFGQGTKVEVK", "notes": "also called VSR-SN in Fab; copies: 1 + 1"}, "B2": {"name": "NuhuTac (rehumanized anti-Tac) (antibody, V domains shown)", "VH": "B1 VH with Q1E, S16A, V52N, R55T, I70M, E74K, T76I, N77S", "VL": "EIVLTQSPATLSLSPGERATLTCSASSSISYMHWFQQKPGQAPRLLIYTTSNLASGIPARFSGSGSGTDYTLTISSLEPEDFAVYYCHQRSTYPLTFGQGTKVEIK", "notes": "VH on human framework R3.5H5G, VL on ka3d1; N-terminal Glu in VH; also called rehumanized antibody"}, "B3": {"name": "daclizumab VH variant RKGFN (antibody, IgG1, name in Kabat numbering, V domains shown)", "VH": "B1 VH with V52R, S54K, R55G, Y57F, E59N", "VL": "B1 VL", "notes": "VH library clone, soluble IgG1"}, "B4": {"name": "daclizumab VH variant RKGFE (antibody, IgG1, name in Kabat numbering, V domains shown)", "VH": "B1 VH with V52R, S54K, R55G, Y57F", "VL": "B1 VL", "notes": "as for B3"}, "B5": {"name": "daclizumab VH variant RRGFE (antibody, IgG1, name in Kabat numbering, V domains shown)", "VH": "B1 VH with V52R, S54R, R55G, Y57F", "VL": "B1 VL", "notes": "as for B3"}, "B6": {"name": "daclizumab VH variant RRKFE (antibody, IgG1, name in Kabat numbering, V domains shown)", "VH": "B1 VH with V52R, S54R, R55K, Y57F", "VL": "B1 VL", "notes": "as for B3"}, "B7": {"name": "daclizumab VL S29R-S31T (antibody, IgG1, V domains shown)", "VH": "B1 VH with V52N, R55T", "VL": "B1 VL with S28R, S30T", "notes": "Soluble IgG1/kappa; also called R29T31"}, "B8": {"name": "NuhuTacVH with daclizumabVL (antibody, V domains shown)", "VH": "B1 VH with Q1E, S16A, V52N, R55T, I70M, E74K, T76I, N77S", "VL": "B1 VL"}, "B9": {"name": "daclizumab VH and NuhuTacVL (antibody, V domains shown)", "VH": "B1 VH with V52N, R55T", "VL": "B2 VL"}, "B10": {"name": "daclizumab VH variant SNKYL (antibody, IgG1, name in Kabat numbering, V domains shown)", "VH": "B1 VH with V52S, S54N, R55K, E59L", "VL": "B1 VL", "notes": "as for B3"}, "B11": {"name": "daclizumab VH variant QRKFH (antibody, IgG1, name in Kabat numbering, V domains shown)", "VH": "B1 VH with V52Q, S54R, R55K, Y57F, E59H", "VL": "B1 VL", "notes": "as for B3"}}, "key": {"[1]": {"target": "T1, recombinant human CD25 (IL2-Rα) (human, UniProt P01589 22-213, limits assumed)", "T1 construct": "Bought recombinant soluble protein; also called IL2 receptor α chain; recombinant soluble human CD25", "T1 sequence (looked up)": "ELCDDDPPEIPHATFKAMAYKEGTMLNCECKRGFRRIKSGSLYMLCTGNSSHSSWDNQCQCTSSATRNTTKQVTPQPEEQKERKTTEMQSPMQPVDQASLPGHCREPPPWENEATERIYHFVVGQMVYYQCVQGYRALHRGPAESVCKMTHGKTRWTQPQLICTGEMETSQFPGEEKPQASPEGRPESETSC", "test": "competition ELISA: binding of biotinylated wild type daclizumab IgG to CD25 in the presence of titrated competitor Fab, O.D. 415", "procedure": "Wells of 96-well ELISA plates (Nunc-Immuno MaxiSorp plates, Nalge Nunc, Rochester, N.Y.) were coated with 100 μL of 0.2 μg/mL CD25 (Pepro Tech Inc., Rocky Hill, N.J.) in 0.2 M sodium carbonate-bicarbonate buffer (pH 9.4, Pierce, Rockford, Ill.) overnight at 4° C. After washing with Wash Buffer, wells were blocked with 200 μL of Superblock Blocking Buffer (Pierce, Rockford, Ill.) for 30 min and then washed. […] The plate was then washed with washing buffer three times. After washing, 100 μL of 1 μg/mL HRP-conjugated Streptavidin (Pierce) diluted in ELISA buffer was added to each well. After 30 minutes of incubation at room temperature, plates were washed and bound antibodies were detected by addition of ABTS substrate (Kirkegaard & Perry Laboratories, Gaithersburg, Md.). […] Binding inhibition curves were fitted using nonlinear regression with the software [sequence]"}, "[2]": {"target": "T1, recombinant human CD25 (IL2-Rα)", "test": "ELISA competition assay on CD25 (format of Section 6.3.1.1: competitor antibody titrated against biotinylated daclizumab on plate-coated CD25), OD415", "procedure": "(§1) Wells of 96-well ELISA plates (Nunc-Immuno MaxiSorp plates, Nalge Nunc, Rochester, N.Y.) were coated with 100 μL of 0.2 μg/mL CD25 (Pepro Tech Inc., Rocky Hill, N.J.) in 0.2 M sodium carbonate-bicarbonate buffer (pH 9.4, Pierce, Rockford, Ill.) overnight at 4° C. After washing with Wash Buffer, wells were blocked with 200 μL of Superblock Blocking Buffer (Pierce, Rockford, Ill.) for 30 min and then washed. […] The plate was then washed with washing buffer three times. After washing, 100 μL of 1 μg/mL HRP-conjugated Streptavidin (Pierce) diluted in ELISA buffer was added to each well. After 30 minutes of incubation at room temperature, plates were washed and bound antibodies were detected by addition of ABTS substrate (Kirkegaard & Perry Laboratories, Gaithersburg, Md.). […] PRISM (GraphPad, San Diego) and reported as IC₅₀ wild type/IC₅₀ mutant (fold improvement over wild type control)."}, "[3]": {"target": "T1, recombinant human CD25 (IL2-Rα)", "test": "ELISA competition assay on CD25 (format of Section 6.3.1.1: competitor antibody titrated against biotinylated daclizumab on plate-coated CD25), OD415", "remark": "listed apart in the source", "procedure": "as §1"}, "[4]": {"target": "T1, recombinant human CD25 (IL2-Rα)", "test": "competitive ELISA on plate-coated CD25; competitor biotinylated daclizumab", "procedure": "as §1"}, "[5]": {"target": "T1, recombinant human CD25 (IL2-Rα)", "test": "competition ELISA on plate-coated CD25; competitor biotinylated daclizumab", "procedure": "as §1"}}, "note": "Changes are numbered by the printed parent chain. Names may count otherwise. Read-outs that look alike come from different tables or passages of the source."}
{"binder": "B1", "values": [{"measurement": "IC50 (read off the curve)", "setting": "[1]", "result": "~30", "unit": "nM"}]}
{"binder": "B2", "values": [{"measurement": "EC50", "setting": "[2]", "result": 0.71, "unit": "µg/mL"}, {"measurement": "EC50", "setting": "[3]", "result": 0.49, "unit": "µg/mL"}]}
{"binder": "B3", "values": [{"measurement": "fold affinity over the parental antibody", "setting": "[4]", "result": "~10", "unit": "fold"}]}
{"binder": "B4", "values": [{"measurement": "fold affinity over the parental antibody", "setting": "[4]", "result": "~10", "unit": "fold"}]}
{"binder": "B5", "values": [{"measurement": "fold affinity over the parental antibody", "setting": "[4]", "result": "~10", "unit": "fold"}]}
{"binder": "B6", "values": [{"measurement": "fold affinity over the parental antibody", "setting": "[4]", "result": "~10", "unit": "fold"}]}
{"binder": "B7", "values": [{"measurement": "fold improvement in binding over daclizumab", "setting": "[5]", "result": "~2", "unit": "fold"}]}
{"binder": "B8", "values": [{"measurement": "EC50", "setting": "[3]", "result": 0.47, "unit": "µg/mL"}]}
{"binder": "B9", "values": [{"measurement": "EC50", "setting": "[3]", "result": 1.18, "unit": "µg/mL"}]}
{"binder": "B10", "values": [{"measurement": "fold affinity over the parental antibody", "setting": "[4]", "result": "~10", "unit": "fold"}]}
{"binder": "B11", "values": [{"measurement": "fold affinity over the parental antibody", "setting": "[4]", "result": "~10", "unit": "fold"}]}
